Test [1] has as its target γHV68 M11 F79A (murine γ-herpesvirus 68) (UniProt P89884). The test is described as follows: ITC; Beclin 1 BH3D peptide titrated into M11 protein, 25 injections of 2 μL, 14 °C; 50 mM HEPES pH 7.5, 150 mM NaCl, 2 mM βME; independent model. In general terms: In ITC the heat of successive injections is recorded.
The target in test [2] is γHV68 M11 L103A (murine γ-herpesvirus 68) (UniProt P89884). The test is described as above.
The target of test [3] is γHV68 M11 L128A (murine γ-herpesvirus 68) (UniProt P89884). Described as above.
For test [4], the target named is γHV68 M11 M119A (murine γ-herpesvirus 68) (UniProt P89884). The test is described as above.
Test [5] has as its target γHV68 M11 Y97A (murine γ-herpesvirus 68) (UniProt P89884). The description is as above.
The target in test [6] is M11 A63K (murine γ-herpesvirus 68) (UniProt P89884). The test is described as follows: ITC; BH3D peptide titrated into M11 protein (25 injections of 2 μL); 14 °C; 50 mM HEPES pH 7.5, 150 mM NaCl, 2 mM βME; co-dialyzed overnight; independent model.
Test [7] has as its target M11 F48A (murine γ-herpesvirus 68) (UniProt P89884). The description is as above.
For test [8], the target named is M11 Y56A (murine γ-herpesvirus 68) (UniProt P89884). The description is as above.
Test [9] has as its target murine γ-herpesvirus 68 vBCL2 M11, wild type (murine γ-herpesvirus 68) (UniProt P89884). The description is as above.

The term Kd denotes a measure of binding affinity in units of concentration. A lower Kd goes with a tighter complex. As for Beclin 1 BH3D peptide, the Ka in test [1] was 4.6e+06 M⁻¹; in [2], 417000 M⁻¹; in [3] it was 1.12e+06 M⁻¹; in test [4], 527000 M⁻¹; in [5], 920000 M⁻¹; in test [6], 160000 M⁻¹. The Ka is 158000 M⁻¹ in test [7], 300000 M⁻¹ in test [8] and 1.2e+06 M⁻¹ in test [9]. For the same substance, the Kd in test [1] is 2.2 µM; in [2], 2.4 µM; in test [3], 0.9 µM; in test [4], 1.9 µM; in [5] it was 1.13 µM; in [6], 6.5 µM. Also, the values for the Kd in test [7], in test [8] and in test [9] were 63.4 µM, 3.38 µM and 0.84 µM, respectively. Further, the dH in test [6] is -9.49 kcal/mol; in test [7] it was -8.63 kcal/mol; in test [8], -9.03 kcal/mol; in test [9], -12.8 kcal/mol.

Values taken from paper PMC7564285.
